The values that follow come from IntAct's records for PubMed 12551906.

The chains are these.
B1: Dolichyl-phosphate-mannose--protein mannosyltransferase 1 (Saccharomyces cerevisiae), P33775 (parent)
chain: MSEEKTYKRVEQDDPVPELDIKQGPVRPFIVTDPSAELASLRTMVTLKEKLLVACLAVFTAVIRLHGLAWPDSVVFDEVHFGGFASQYIRGTYFMDVHPPLAKMLYAGVASLGGFQGDFDFENIGDSFPSTTPYVLMRFFSASLGALTVILMYMTLRYSGVRMWVALMSAICFAVENSYVTISRYILLDAPLMFFIAAAVYSFKKYEMYPANSLNAYKSLLATGIALGMASSSKWVGLFTVTWVGLLCIWRLWFMIGDLTKSSKSIFKVAFAKLAFLLGVPFALYLVFFYIHFQSLTLDGDGASFFSPEFRSTLKNNKIPQNVVADVGIGSIISLRHLSTMGGYLHSHSHNYPAGSEQQQSTLYPHMDANNDWLLELYNAPGESLTTFQNLTDGTKVRLFHTVTRCRLHSHDHKPPVSESSDWQKEVSCYGYSGFDGDANDDWVVEIDKKNSAPGVAQERVIALDTKFRLRHAMTGCYLFSHEVKLPAWGFEQQEVTCASSGRHDLTLWYVENNSNPLLPEDTKRISYKPASFISKFIESHKKMWHINKNLVEPHVYESQPTSWPFLLRGISYWGENNRNVYLLGNAIVWWAVTAFIGIFGLIVITELFSWQLGKPILKDSKVVNFHVQVIHYLLGFAVHYAPSFLMQRQMFLHHYLPAYYFGILALGHALDIIVSYVFRSKRQMGYAVVITFLAASVYFFKSFSPIIYGTPWTQELCQKSQWLSGWDYNCNTYFSSLEEYKNQTLTKRESQPAATSTVEEITIEGDGPSYEDLMNEDGKKIFKDTEGNELDPEVVKKMLEEEGANILKVEKRAVLE
partner: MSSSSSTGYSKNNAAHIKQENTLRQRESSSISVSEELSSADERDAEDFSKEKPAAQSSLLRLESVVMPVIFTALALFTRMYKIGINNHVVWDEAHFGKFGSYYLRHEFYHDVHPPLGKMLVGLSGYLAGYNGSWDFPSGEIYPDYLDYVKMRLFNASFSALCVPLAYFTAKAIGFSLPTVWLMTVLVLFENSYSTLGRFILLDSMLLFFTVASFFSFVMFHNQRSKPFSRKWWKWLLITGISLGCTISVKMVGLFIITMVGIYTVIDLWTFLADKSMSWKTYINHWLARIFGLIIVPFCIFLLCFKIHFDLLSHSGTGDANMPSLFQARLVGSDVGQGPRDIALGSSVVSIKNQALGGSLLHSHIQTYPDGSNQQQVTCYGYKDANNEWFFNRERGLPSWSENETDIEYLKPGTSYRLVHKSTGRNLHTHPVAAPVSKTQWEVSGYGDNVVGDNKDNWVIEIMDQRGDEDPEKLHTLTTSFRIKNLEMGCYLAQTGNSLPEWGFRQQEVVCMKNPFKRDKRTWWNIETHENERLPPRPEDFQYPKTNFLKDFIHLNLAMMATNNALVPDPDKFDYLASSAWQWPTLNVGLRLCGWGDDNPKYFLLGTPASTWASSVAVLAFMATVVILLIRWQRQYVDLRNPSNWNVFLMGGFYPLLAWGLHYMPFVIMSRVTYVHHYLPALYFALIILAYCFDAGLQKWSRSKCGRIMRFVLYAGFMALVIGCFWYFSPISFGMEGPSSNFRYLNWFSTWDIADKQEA

In this test the parent is B1. The note with it: with pmt2_yeast PMT2, P31382.
Consider R138A, for which the “effect of a mutation on the interaction” value is “disrupting interaction strength”. Turning to R138K, the “effect of a mutation on the interaction” value is “decreasing interaction strength”.
